Biological target: E. coli 70S ribosome (E. coli (endogenous in MRE600)) (UniProt P0AG67)
Assay: co-purification with ribosomes isolated from cell extract; 70S ribosomes from E. coli MRE600, low salt wash (0.75 M NH4Cl; 0.6 M for 2D-PAGE); 12% SDS-PAGE and 2D-PAGE, MALDI-TOF/TOF mass spectrometry, western blot with anti-AdhE; occupancy from band intensities with L2 as 100%

Substance | occupancy
aldehyde-alcohol dehydrogenase E (AdhE), co-purified with the E. coli 70S ribosome (from UniProt P0A9Q7 1-891) (natural protein) | 50%
outer membrane protein C (OmpC), co-purified with the E. coli 70S ribosome (from UniProt P06996 22-367) (natural protein) | 60%
